Experimental findings from patent publication US20240190968A1 are described below.

The assay concerns the target Cynomolgus monkey B7H6 protein overexpressed in CHO-K1 cells (Cynomolgus monkey). In words: flow cytometry on CHO-K1-cyno B7H6 cells, Alexa-647 mouse anti-human IgG-Fc secondary antibody, binding ratio (%). For orientation: Flow cytometry measures light scatter and fluorescence of single cells or particles in a stream.

The term EC50 (read off the curve) denotes the concentration giving half of the maximal effect.

Chain of Cynomolgus monkey B7H6 protein overexpressed in CHO-K1 cells (Cynomolgus monkey) (chain, as listed by the source limits assumed, form in doubt): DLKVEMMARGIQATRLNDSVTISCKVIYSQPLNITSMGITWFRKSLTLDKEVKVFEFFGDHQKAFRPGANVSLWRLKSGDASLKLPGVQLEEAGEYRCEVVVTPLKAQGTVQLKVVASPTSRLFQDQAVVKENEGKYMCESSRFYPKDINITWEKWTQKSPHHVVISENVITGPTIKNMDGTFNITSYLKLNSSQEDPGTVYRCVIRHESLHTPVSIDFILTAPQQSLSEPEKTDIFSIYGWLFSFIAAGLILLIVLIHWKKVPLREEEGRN

B1: humanized antibody h12F5 (antibody, human IgG1, kappa, V domains shown)
VH: EVQLVQSGAEVKKPGASVKVSCKASGYTFTSYYMYWVRQAPGQGLEWIGEINPSNGGTNFNEKFKSRVTLTVDKSISTAYMELSRLRSDDTAVYYCTRTLYYGNDWYFDVWGQGTTVTVSS
VL: EIVLTQSPDFQSVTPKEKVTITCSASSSVNYMHWYQQKPDQSPKRLIYDTSKLASGVPSRFSGSGSGTDYTLTINSLEAEDAATYYCQQWSSNPVTFGQGTKLEIKR
Regarding B1, the EC50 (read off the curve) came out at 0.2 µg/mL.

B2: humanized antibody h12G4 (antibody, human IgG1, kappa, V domains shown)
VH: EVQLVQSGAEVKKPGASVKVSCKASGYTFTDYNMDWVRQAPGKGLEWIGDINPNNGGTLYNQKFRGRVTLTVDKSISTAYMELSRLRSDDTAVYYCARSEVFYGNYADYWGQGTTVTVSS
VL: DIVLTQTPLSLSVTPGQPASISCKASQSVDYDGDSYMNWYLQKPGQPPQLLIYAASTLHSGVPDRFSGSGSGTDFTLKISRVEAEDVGVYYCQQSKEDPRTFGQGTKLEIKR
With B2, the EC50 (read off the curve) turned out to be 0.7 µg/mL.
